According to patent US20040185460:

T1: inactivated MKK4, P45985
T1 chain: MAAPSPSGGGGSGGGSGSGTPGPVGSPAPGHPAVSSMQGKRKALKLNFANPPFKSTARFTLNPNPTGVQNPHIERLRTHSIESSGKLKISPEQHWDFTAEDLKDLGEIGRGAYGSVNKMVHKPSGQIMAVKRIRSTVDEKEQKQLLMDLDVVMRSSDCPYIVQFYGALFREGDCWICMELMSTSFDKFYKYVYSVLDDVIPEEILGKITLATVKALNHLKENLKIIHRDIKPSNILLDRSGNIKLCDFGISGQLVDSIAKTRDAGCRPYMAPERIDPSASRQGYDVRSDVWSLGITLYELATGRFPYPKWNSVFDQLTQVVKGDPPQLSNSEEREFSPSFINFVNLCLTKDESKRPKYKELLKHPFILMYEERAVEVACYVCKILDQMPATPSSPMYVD

B1: baculoviral GST-MLK3KD (protein)
chain: LRLEEVIGIGGFGKVYRGSWRGELVAVKAARQDPDEDISVTAESVRQEARLFAMLAHPNIIALKAVCLEEPNLCLVMEYAAGGPLSRALAGRRVPPHVLVNWAVQIARGMHYLHCEALVPVIHRDLKSNNILLLQPIESDDMEHKTLKITDFGLAREWHKTTQMSAAGTYAWMAPEVIKASTFSKGSDVWSFGVLLWELLTGEVPYRGIDCLAVAYGVAVNKLTLPIPSTCPEPFAQLMADCWAQDPHRRPDFASILQQLEAL
B2: inactivated MKK4 (protein)
chain: MAAPSPSGGGGSGGGSGSGTPGPVGSPAPGHPAVSSMQGKRKALKLNFANPPFKSTARFTLNPNPTGVQNPHIERLRTHSIESSGKLKISPEQHWDFTAEDLKDLGEIGRGAYGSVNKMVHKPSGQIMAVKRIRSTVDEKEQKQLLMDLDVVMRSSDCPYIVQFYGALFREGDCWICMELMSTSFDKFYKYVYSVLDDVIPEEILGKITLATVKALNHLKENLKIIHRDIKPSNILLDRSGNIKLCDFGISGQLVDSIAKTRDAGCRPYMAPERIDPSASRQGYDVRSDVWSLGITLYELATGRFPYPKWNSVFDQLTQVVKGDPPQLSNSEEREFSPSFINFVNLCLTKDESKRPKYKELLKHPFILMYEERAVEVACYVCKILDQMPATPSSPMYVD
B3: baculoviral human GST-MLK7KD (protein)
chain: PANYVAPCRPAASPAPPPSRPSSPVHVAFERLELKELIGAGGFGQVYRATWQGQEVAVKAARQDPEQDAAAAAESVRREARLFAMLRHPNIIELRGVCLQQPHLCLVLEFARGGALNRALAAANAAPDPRAPGPRRARRIPPHVLVNWAVQIARGMLYLHEEAFVPILHRDLKSSNILLLEKIEHDDICNKTLKITDFGLAREWHRTTKMSTAGTYAWMAPEVIKSSLFSKGSDIWSYGVLLWELLTGEVPYRGIDGLAVAYGVAVNKLTLPIPSTCPEPFAKLMKECWQQDPHIRPSFALILEQLTAIEGAVMTEMPQESFHS

Tests used:
[1] = target: GST-MKK7β1(K149A), O14733
[2] = target: GST-MKK4(K113A) [GST: P08515]
[3] = target: myelin basic protein (UBI #13-104)
inactivated MKK4, P45985 = target: T1, inactivated MKK4, P45985

| Protein | phosphorylation of substrate coated on the plate (ELISA-based assay, time-resolved fluorescence) [1] | phosphorylation of substrate coated on the plate (ELISA-based assay, time-resolved fluorescence) [2] | phosphorylation of myelin basic protein (radioactive counts, Multiscreen TCA in-plate assay) [3] | phosphorylation of GST-JNK1β1(K55A) by activated MKK4 (phospho-specific JNK antibody, fluorescence) (GST-JNK1β1(K55A), P45983) | phosphorylation of substrate coated on the plate (fluorescence units, ELISA-based assay with phospho-threonine antibody, time-resolved fluorescence) [1] | specific activity, ratio against GST-MLK7KD/LZ (ELISA-based phosphorylation assay) [1] | phosphorylation of substrate coated on the plate (fluorescence units, ELISA-based assay with phospho-threonine antibody, time-resolved fluorescence) [2] | specific activity, ratio against GST-MLK7KD/LZ (ELISA-based phosphorylation assay) [2] | in vitro kinase cascade: phosphorylation/activation of MKK4, read as phosphorylated GST-JNK1β1(K55A) (phospho-specific JNK antibody, fluorescence) (inactivated MKK4, P45985) |
| --- | --- | --- | --- | --- | --- | --- | --- | --- | --- |
| B1 | both GST-MLK7 forms were less active than GST-MLK3KD (control enzyme) | both GST-MLK7 forms were less active than GST-MLK3KD (control enzyme) | Baculoviral GST-MLK3KD was used as the control enzyme in this analysis to show phosphorylation of myelin basic protein by a member of the mixed lineage kinase family | – | – | – | – | – | – |
| B2 | – | – | – | MKK4 was activated and was able to phosphorylate its protein substrate GST-JNK1β1(K55A) | – | – | – | – | – |
| B3 | – | – | Both GST-MLK7KD and GST-MLK7KD/LZ were able to phosphorylate myelin basic protein | – | both forms of baculoviral GST-MLK7 catalyzed the phosphorylation of the two MKK protein substrates, GST-MKK4(K113A) and GST-MKK7(K149A) | GST-MLK7KD displaying about 2× higher activity than GST-MLK7KD/LZ | both forms of baculoviral GST-MLK7 catalyzed the phosphorylation of the two MKK protein substrates, GST-MKK4(K113A) and GST-MKK7(K149A) | GST-MLK7KD displaying about 2× higher activity than GST-MLK7KD/LZ | both GST-MLK7KD and GST-MLK7KD/LZ were able to phosphorylate MKK4 and as a consequence of this phosphorylation event, MKK4 was activated |
